Paper PMC2680285
Where “and” joins values, the source holds several entries; their conditions need not be identical. Equal values may be shown once.

Biological target: T1, wild-type GADD45α (growth arrest- and DNA damage-induced gene 45α), C-terminally myc-tagged (human), P24522
T1 chain: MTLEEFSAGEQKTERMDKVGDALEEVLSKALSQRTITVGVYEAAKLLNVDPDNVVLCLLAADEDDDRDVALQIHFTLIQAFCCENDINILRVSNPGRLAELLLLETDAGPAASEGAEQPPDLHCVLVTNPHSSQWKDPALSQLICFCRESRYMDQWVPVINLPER
Assay: native gel or EMSA
Settings: remark: other sources report otherwise

B1: wild-type GADD45α (growth arrest- and DNA damage-induced gene 45α), C-terminally myc-tagged, P24522 1-165 (natural protein)
chain: T1 chain
With B1 the stoichiometry N was 3 and 4.
